Reference: US20220403031A1
Values belong to the binder of their own block, whether it stands above or below them.

Experiments:
[1] = molecular target: 4-1BB.his (Homo sapiens (Human)) (UniProt Q07011); experiment: non-specific binding ELISA; antigen coated at 2 ug/mL, antibody at 10 ug/ml
[2] = molecular target: HER3.his (Homo sapiens (Human)) (UniProt P21860); experiment: as above
[3] = molecular target: OX40.his; experiment: as above
[4] = molecular target: PD-1.his (Homo sapiens (Human)) (UniProt Q15116); experiment: as above
Chain of PD-1.his (Homo sapiens (Human)) (Q15116 25-170 limits assumed): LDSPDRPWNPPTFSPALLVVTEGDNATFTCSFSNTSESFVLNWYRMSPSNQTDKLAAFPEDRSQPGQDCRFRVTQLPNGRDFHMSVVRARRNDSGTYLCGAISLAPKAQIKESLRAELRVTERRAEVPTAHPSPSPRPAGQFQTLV

[5] = molecular target: human PD-L1 on CHO-K1 cells (W315-CHO-K1.hPro1.C11) (human) (UniProt Q9NZQ7); experiment: FACS affinity on human PD-L1 cells, quantitative beads; design: Bmax: unit not given here
Chain of human PD-L1 on CHO-K1 cells (W315-CHO-K1.hPro1.C11) (human) (Q9NZQ7 19-290): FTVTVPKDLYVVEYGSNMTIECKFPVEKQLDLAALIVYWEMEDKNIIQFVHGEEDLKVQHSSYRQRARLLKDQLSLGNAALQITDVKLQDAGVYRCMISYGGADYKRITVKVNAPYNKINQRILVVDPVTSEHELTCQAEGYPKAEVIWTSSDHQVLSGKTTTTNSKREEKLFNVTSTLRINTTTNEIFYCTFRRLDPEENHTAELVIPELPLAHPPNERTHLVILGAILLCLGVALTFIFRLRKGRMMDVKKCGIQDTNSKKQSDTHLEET

Chain of 4-1BB.his (Homo sapiens (Human)) (Q07011 24-186 limits assumed): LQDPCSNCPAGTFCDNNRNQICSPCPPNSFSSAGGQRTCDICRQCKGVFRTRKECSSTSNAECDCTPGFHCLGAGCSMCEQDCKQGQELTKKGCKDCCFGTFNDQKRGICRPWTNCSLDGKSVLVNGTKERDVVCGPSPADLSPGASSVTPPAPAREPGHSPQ
Chain of OX40.his (P43489 29-214): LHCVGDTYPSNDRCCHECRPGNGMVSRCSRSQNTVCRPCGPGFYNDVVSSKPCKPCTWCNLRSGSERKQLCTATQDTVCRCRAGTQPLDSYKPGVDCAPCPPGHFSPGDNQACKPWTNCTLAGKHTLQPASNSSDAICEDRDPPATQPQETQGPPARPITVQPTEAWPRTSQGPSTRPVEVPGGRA

Absorbance at 450 nm [1]: 0.07
Absorbance at 450 nm [2]: 0.07
Absorbance at 450 nm [3]: 0.06
Absorbance at 450 nm [4]: 0.06
B1: AP3R2-1A3-z12-hIgG4 (Fc fusion, not shown: a dimerising Fc or GST)
chain: EVQLVESGGGLVQPGGSLRLSCAASGHFSNLAVNWFRQAPGKERELVAGILWSGGSTFYADSVKGRFTISRGNAENMLYLQMNSLRAEDTAVYYCNTGTNWGQGTLVTVSS

Bmax [5]: 2.8e-10
Kd [5]: 0.24 nM
B2: BMK9.Fc(IgG4) (Benchmark antibody 9, variable region of KN035 conjugated with human IgG4 constant region) (Fc fusion, INN chains, looked up)
VH: QVQLVESGGGLVQPGGSLRLSCAASGKMSSRRCMAWFRQAPGKERERVAKLLTTSGSTYLADSVKGRFTISRDNSKNTVYLQMNSLRAEDTAVYYCAADSFEDPTCTLVTSSGAFQYWGQGTLVTVSS
modifications: VHH-Fc IgG4
